Test results published in US20160039916A1 (MISFOLDING DIAGNOSTICS, published 2016).
Ends that are not written are not given here.

Target: T1, Peptide 13 (TSESGELHGLTTE) (also: biotinylated)
T1 construct: Lies on the D-strand of TTR
T1 peptide: TSESGELHGLTTE
Assay: indirect ELISA: biotinylated peptide 13 (TSESGELHGLTTE) captured on NeutrAvidin, antibody titrated, HRP secondary antibody, TMB, % max. binding, the axis is Log10 [Antibody] nM

- EC50: 0.247 nM
B1: MFD108 (antibody, V domains shown)
VH: EVQLVESGGDLVKPGGSLKLSCAASGFTFSNYGMSWVRQTPDKRLEWVATITSGGSYTYYPDSVKGRFTISRDNAKNTLYLQMSSLKSEDTAMYYCARDGTAWFAYWGQGTLVTVSA
VL: DIQMTQTTSSLSASLGDRVTISCRASQDISNYLNWYQQKPDGTVKLLIYYTSRLHSGVPSRFSGSGSGTDYSLTISNLEEEDIATYFCQQGNTLRTFGGGTKLEIK
